Data as given in US12049482B2, “Molecular switch-mediated control of engineered cells” (THE GENERAL HOSPITAL CORPORATION, priority 2017, dated 2024).
One block for each molecule: values may come before it.

Tests used:
[1] = target: CRBN (Homo sapiens, UniProt Q96SW2); experiment: EGFP/mCherry reporter of zinc finger degron sequences, IMiD titration; format: cell-based; set-up: endogenous in cells; settings: HEK239T cells, drug titration, 20 h
Method: A hybrid sequence of two distinct CRBN substrates, IKZF3 and ZFP91, was constructed and examined for activity within an “OFF-switch” system of the instant disclosure. In such experiments, reporter constructs containing zinc finger sequences were expressed in HEK239T cells via lentiviral transduction, after which the cells were treated with a titration of (IMiD) drug concentrations for 20 h. Flow cytometry was used to measure the EGFP/mCherry ratio normalized to the average of three DMSO treated controls. Data shown in FIG. 10 are representative of two experimental replicates (technical replicates=0, experimental replications=2).

[2] = test system: CRBN; experiment: Internalization and degradation of CD28-degron-GFP in 293T cells; format: cell-based, human; settings: 10 μM pomalidomide, 293T cells with biallelic CRBN exon 5 disruption
Method: Transduced cells were incubated with a range of Pomalidomide concentrations or DMSO for 20 hours. Cells were analyzed by flow cytometry for eGFP and mCherry fluorescence. 1000 mCherry+ cells were analyzed per sample, and the geometric mean of the per-cell eGFP/mCherry ratio was calculated in Flowjo. In Pomalidomide dose titration studies, the EC50 was calculated by non-linear regression in Prism. Experiments were performed in triplicate. In some cases cell surface protein expression was assayed in parallel with the above reporter assay; cells were stained with anti-CD28-BV421 antibody (BD Biosciences 562613) at a 1:50 dilution in FACS buffer (PBS+2% FCS+2 mM EDTA) for 10 minutes on ice. Cells were washed with FACS buffer and analyzed by flow cytometry.

[3] = test system: CD19scFv-CD28-IKZF3; experiment: BRET, split receptor: membrane-tethered or untethered minCRBN3 paired with CD19scFv-CD28-IKZF3; format: cell-based, human; settings: 293T cells, 10 μM MG132, 2 hours of drug treatment
Method: (§1) 293T cells were co-transfected with pFC14K and pFC32K plasmids expressing IKZF3-HaloTag and CRBN-Nanoluciferase fusion proteins and incubated overnight. Cells were then trypsinized and seeded into 96 well plates, at 40,000 cells per well. The BRET assay was performed per manufacturer's instructions (Promega™). In brief, cells were incubated for 2 hours with varying concentrations of Pomalidomide or DMSO, 10 μM MG132, and 100 nM HaloTag NanoBRET 618 Ligand. NanoBRET Nano-Glo substrate was added and donor (460 nm) and acceptor (618 nm) emission were measured within 10 minutes (EnVision, Perkin Elmer). Mean corrected milliBRET units (mBU) was calculated.
Specific minCRBN-presenting polypeptide tethers to the plasma membrane that were tested included: (1) a CD8/CD28 system in which about 36 amino acids of TMD and cytosolic sequence connected to the co-stimulatory/minCRBN domains of the thereby membrane-tethered polypeptide; (2) a PD1 Y F ITAM/ITSM construct, in which minCRBN was tethered to the plasma membrane via a TMD and cytosolic domain of approximately 100 amino acids in length; and (3) a LYN-CD28 construct, in which membrane tethering was achieved via myristoyl/palmitoylation.

[4] = test system: IKZF3aa130-189; experiment: BRET assay, dimerization of IKZF3aa130-189 with CRBN or minCRBN variants; format: cell-based, human; settings: pomalidomide dose-response
Method: Specifically, CRBN deletion variants were engineered to retain binding to Pom/IKZF3 but not DDB1/CUL4. Four deletion variants were generated in CRBN that removed the DDB1-binding domain, as shown in the middle image (NTD is the N-terminal domain; LLP1 is Lon-like protease domain 1 (split into LLP1-N and LLP1-C regions); TBD is the Thalidomide binding domain). At middle, BRET assays were performed upon 293T cells harboring bialleleic CRISPR/Cas9 disruption of endogenous CRBN (293T-CRBNΔe5), to assess dimerization between IKZF3aa130-189 and CRBN or minCRBN variants (dose-response data shown are CRBN, minCRBN1, minCRBN2, minCRBN3 and minCRBN4). […] Pomalidomide-dependent dimerization was observed between IKZF3aa130-189-HaloTag and CRBN-Nanoluciferase (NLuc) or minCRBN2-4-NLuc. […] 1 day after transfection, cells were exposed to 1 μM pomalidomide for the number of hours indicated and GFP and mCherry fluorescence was measured by flow cytometry (eGFPmCherry levels were detected as 0.5 or less for the CRBN trace).
as §1
Tested forms of minimal CRBN included minCRBN1, minCRBN2, minCRBN3 and minCRBN4, each of which were aligned against the wild-type CRBN (FIG. 1; all tested minCRBNs lacked the DDB1-binding domain—minCRBN1 comprised amino acids 339-442 of CRBN (including the TBD); minCRBN2 comprised amino acids 317-442 of CRBN (including TBD and an N-terminal extended sequence relative to minCRBN1); minCRBN3 included all CRBN sequence other than amino acids 194-207 (deletion of the DDB1-binding domain); and minCRBN4 included all sequences other than amino acids 187-260 (deletion of the DDB1-binding domain)).

Chain of CRBN (Homo sapiens, UniProt Q96SW2) (Q96SW2 whole entry): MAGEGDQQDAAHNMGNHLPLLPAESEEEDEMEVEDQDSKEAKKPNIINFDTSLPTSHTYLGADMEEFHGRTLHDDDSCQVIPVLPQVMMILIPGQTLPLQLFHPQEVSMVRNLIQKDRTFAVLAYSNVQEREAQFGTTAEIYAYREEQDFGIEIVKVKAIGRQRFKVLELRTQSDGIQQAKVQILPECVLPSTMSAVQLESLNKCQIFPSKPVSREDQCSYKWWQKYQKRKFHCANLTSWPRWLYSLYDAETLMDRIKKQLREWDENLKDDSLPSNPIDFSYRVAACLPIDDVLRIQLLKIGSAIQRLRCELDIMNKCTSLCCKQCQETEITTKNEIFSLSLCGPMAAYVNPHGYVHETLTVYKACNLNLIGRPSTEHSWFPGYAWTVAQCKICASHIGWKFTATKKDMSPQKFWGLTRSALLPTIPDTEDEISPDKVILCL
Chain of CD19scFv-CD28-IKZF3 (as listed by the source, one chain of several): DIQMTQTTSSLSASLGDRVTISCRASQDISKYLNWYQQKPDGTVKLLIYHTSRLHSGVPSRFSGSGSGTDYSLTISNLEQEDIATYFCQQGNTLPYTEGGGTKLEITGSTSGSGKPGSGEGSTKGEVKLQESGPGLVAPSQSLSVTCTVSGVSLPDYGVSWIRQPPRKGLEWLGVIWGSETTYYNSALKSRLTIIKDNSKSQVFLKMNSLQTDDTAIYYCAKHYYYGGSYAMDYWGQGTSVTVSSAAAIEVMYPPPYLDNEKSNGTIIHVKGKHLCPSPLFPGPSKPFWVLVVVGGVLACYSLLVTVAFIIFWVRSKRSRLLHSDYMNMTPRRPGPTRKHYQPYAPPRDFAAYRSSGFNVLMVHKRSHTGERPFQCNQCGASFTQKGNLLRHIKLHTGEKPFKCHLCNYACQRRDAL
Chain of IKZF3aa130-189 (Q9UKT9 130-189 limits assumed, one chain of several): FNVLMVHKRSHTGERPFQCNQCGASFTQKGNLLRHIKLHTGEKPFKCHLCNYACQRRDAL

- IMiD sensitivity (EGFP/mCherry ratio normalized to DMSO) [1]: minimal IMiD sensitivity/responsiveness
Molecule: IKZF3/ZFP91: Reverse hybrid, IKZF3 amino acids 146-156 + ZFP91 amino acids 411-422, SEQ ID NO: 33 (FQCNQCGASFTQKASLNWHMKKH)

Molecule: ZFP91/IKZF3 hybrid: ZFP91 amino acids 400-410 + IKZF3 amino acids 157-168, SEQ ID NO: 32 (LQCEICGFTCRQKGNLLRHIKLH)
- IMiD sensitivity (EGFP/mCherry ratio normalized to DMSO) [1]: greater IMiD sensitivity than either the ZFP91 degron sequence alone or the IKZF3 degron sequence alone

Molecule: CD28-degron: In frame fusion of full length CD28, a SG linker, and IKZF3 (amino acids 130-189); SEQ ID NO: 82
- degradation (normalized GFP levels) [2]: no significant decline in normalized GFP levels

B1: minCRBN3: All CRBN sequence other than amino acids 194-207 (deletion of the DDB1-binding domain), SEQ ID NO: 3 (protein)
chain: AGEGDQQDAAHNMGNHLPLLPESEEEDEMEVEDQDSKEAKKPNIINFDTSLPTSHTYLGADMEEFHGRTLHDDDSCQVIPVLPQVMMILIPGQTLPLQLFHPQEVSMVRNLIQKDRTFAVLAYSNVQEREAQFGTTAEIYAYREEQDFGIEIVKVKAIGRQRFKVLELRTQSDGIQQAKVQILPECVLPSTYDAETLMDRIKKQLREWDENLKDDSLPSNPIDFSYRVAACLPIDDVLRIQLLKIGSAIQRLRCELDIMNKCTSLCCKQCQETEITTKNEIFSLSLCGPMAAYVNPHGYVHETLTVYKACNLNLIGRPSTEHSWFPGYAWTVAQCKICASHIGWKFTATKKDMSPQKFWGLTRSALLPTIPDTEDEISPDKVILCL
- pomalidomide-dependent interaction with IKZF3 degron split receptor (BRET) [3]: to a significantly lesser extent than any of the various plasma membrane-tethered versions
- pomalidomide-dependent dimerization with IKZF3 degron (mBU) [4]: pomalidomide-dependent interactions
